Measurements taken from patent US5162203A, “Methods of measuring isozymes and isozyme classes of alcohol dehydrogenase” (President and Fellows of Harvard College, priority 1989, dated 1992).
Where “and” joins values, the source holds several entries; their conditions need not be identical. Identical values can stand only once.

Columns and labels:
[1] = Specific activity of purified ADH isozymes in ethanol oxidation assay; format: biochemical
Text: The isozymes used as primary standards were homogeneous based on SDS-polyacrylamide, urea-polyacrylamide and starch gel electrophoresis as described above. […] Using ethanol as substrate in a conventional ADH assay as described in part 8 of this Example, the specific activity of each purified ADH isozyme was established by monitoring NADH production by the change in absorbance at 340 nm on a Cary 219 spectrophotometer calibrated with potassium chromate absorbance standards (Fisher Chem. Co., Medford, MA) The activity of the purified ADH Class I isozymes were also assayed according to methods of the present invention (Examples 1 (part 8), 2 and 4).
A modification of the procedure of Ditlow et al., 1984, Biochemistry 23:6363-68, was used to purify Class II ADH from human livers proceeding from the preparation of Class I isozymes as described in subpart (a) above. The effluent of the CapGapp column obtained during the loading and binding of Class I was concentrated to about 200 ml in an Amicon concentrator with a PM.30 membrane and dialyzed 16 hours against 10 liters of 10 mM potassium phosphate, 0.1 mM DTT, pH 7.4 containing 10 μM octanal. The sample was applied to a column (3×5 cm) of agarose-AMP affinity resin at a flow rate of 0.5 ml/minute followed by washing of the column with 200 ml of the dialysis buffer. The bound enzyme was eluted with 150 ml of the dialysis buffer with a gradient of NADH from 0 to 66 μg/ml.
Standard assays for ethanol oxidation activity (Dalziel, 1957, Acta Chem Scand 11:1706-23) were carried out on a Cary 219 spectrophotometer interfaced with an Apple IIe microcomputer, using software provided by Varian Associates. The reaction mixture contained 2.5 mM NAD^+ in 0.1M glycine-NaOH buffer. pH 10.0, and 33 mM or 0.2M ethanol for Class I and Class II ADH, respectively.

[2] = Effect of storage conditions and time on ADH activity in serum; format: physicochemical, human
Protocol: Fresh serum samples were obtained from the Clinical Chemistry Laboratory at Brigham and Women's Hospital, Boston, Mass. All serum measurements reported herein were performed within 5 hours of phlebotomy unless otherwise indicated On storage there is considerable variation in the ADH activity of serum samples from the same and different patients. FIGS. 5A and 5B show the effect of storage at 4° C. (closed circles) and room temperature (closed squares) in a typical serum sample, using substrate IA (FIG. 5A) and substrate IIA (FIG. 5B) as measured by the four-assay procedure of Example 4.

[3] = Reconstitution of purified ADH in inactive diluted human serum, substrate IIA; format: biochemical; conditions: Class II, 50-fold diluted serum, listed as II
Protocol: The ADH isozymes employed were electrophoretically homogeneous with symmetrical HPLC elution profiles and had the highest constant specific activity. Their activity was established both by the standard A340 assay using ethanol and using substrates IA and IIA under conditions described herein, but in the absence of serum.
After the residual background reaction was recorded, a purified ADH isozyme prepared as described in Example 1 was then added and the rate measured as described in part 8 of Example 1. All measurements were made in triplicate.

[4] = target: ADH in human serum (Class II) (Homo sapiens, UniProt P08319); assay: Fluorometric measurement of serum ADH activity with substrate IIA; format: biochemical; conditions: Class II, substrate IIA
Protocol: All reaction mixtures (3 ml total volume) were prepared directly in 1 cm pathlength, 4 ml fluorometric cuvettes by adding 150 μl of the 300 μM substrate solution (e.g substrate IA or IIA) 100 μl of the 1 mM NADH solution (prepared as in part 5 above) and 2.69 ml of assay buffer (0.1M phosphate, pH 7.6). After thermal equilibration (25° C.) for 5 minutes, 60 μl of isozyme sample (either serum or purified ADH isozymes) was added to the cuvette.
The linear increase of fluorescence was then recorded for 1-10 minutes, until 0.03-1 μM of substrate was consumed. Larger substrate consumption was not found to be desirable (described in subpart (c) below). […] The added product fluorescence intensity was then measured Fluorescence measurements were optimized for samples with low activity (<1 nM/minute). […] Rates measured in the presence of the 0.2 mM ADH inhibitors. […]
The rates of aldehyde reduction, determined as initial velocities (V) and expressed in units of nM/minute, were calculated according to: [formula] where the quantity in parentheses is the slope of the linear fluorescence increase calculated from the quantities Ft and FO, the fluorescence at time t and at the beginning of the reaction, respectively. Cst is the concentration of the product used as a standard added to the cuvette after the initial rate had been measured and Fst is the fluorescence intensity of the added product […]

| limit of detection as isozyme concentration [4] [nM] | Molecule | specific activity ([1]; ethanol oxidation, pH 10) [U/mg] | Average Activity Retained ([2]; 4 °C, 2 days) [%] | Average Activity Retained ([2]; 23 °C, 1 day) [%] | Average Activity Retained ([2]; 23 °C, 2 days) [%] | stability of activity in serum ([2]; -70° C.) | Average Activity Retained ([2]; -70 °C, 30 days) [%] | half-life of ADH activity in sera ([2]; room temperature) | specific activity ([1]; purified Class II ADH) [U/mg] | Recovery [3] |
| --- | --- | --- | --- | --- | --- | --- | --- | --- | --- | --- |
| – | γ1γ1: Class I human ADH isozyme, γ1 homodimer (protein, UniProt P00326 2-375, looked up, homodimer, Class I human ADH isozyme, γ1 homodimer) Alcohol dehydrogenase 1C: STAGKVIKCKAAVLWELKKPFSIEEVEVAPPKAHEVRIKMVAAGICRSDEHVVSGNLVTPLPVILGHEAAGIVESVGEGVTTVKPGDKVIPLFTPQCGKCRICKNPESNYCLKNDLGNPRGTLQDGTRRFTCSGKPIHHFVGVSTFSQYTVVDENAVAKIDAASPLEKVCLIGCGFSTGYGSAVKVAKVTPGSTCAVFGLGGVGLSVVMGCKAAGAARIIAVDINKDKFAKAKELGATECINPQDYKKPIQEVLKEMTDGGVDFSFEVIGRLDTMMASLLCCHEACGTSVIVGVPPDSQNLSINPMLLLTGRTWKGAIFGGFKSKESVPKLVADFMAKKFSLDALITNILPFEKINEGFDLLRSGKSIRTVLTF | 4.4 | – | – | – | – | – | – | – | – |
| – | β1 β1: Class I human ADH isozyme, β1 homodimer (protein, UniProt P00325 2-375, looked up, homodimer, Class I human ADH isozyme, β1 homodimer) All-trans-retinol …: STAGKVIKCKAAVLWEVKKPFSIEDVEVAPPKAYEVRIKMVAVGICHTDDHVVSGNLVTPLPVILGHEAAGIVESVGEGVTTVKPGDKVIPLFTPQCGKCRVCKNPESNYCLKNDLGNPRGTLQDGTRRFTCRGKPIHHFLGTSTFSQYTVVDENAVAKIDAASPLEKVCLIGCGFSTGYGSAVNVAKVTPGSTCAVFGLGGVGLSAVMGCKAAGAARIIAVDINKDKFAKAKELGATECINPQDYKKPIQEVLKEMTDGGVDFSFEVIGRLDTMMASLLCCHEACGTSVIVGVPPASQNLSINPMLLLTGRTWKGAVYGGFKSKEGIPKLVADFMAKKFSLDALITHVLPFEKINEGFDLLHSGKSIRTVLTF | 0.42 | – | – | – | – | – | – | – | – |
| 0.17 | Class II ADH: human liver Class II alcohol dehydrogenase (protein, UniProt P08319 1-380, looked up) All-trans-retinol …: MGTKGKVIKCKAAIAWEAGKPLCIEEVEVAPPKAHEVRIQIIATSLCHTDATVIDSKFEGLAFPVIVGHEAAGIVESIGPGVTNVKPGDKVIPLYAPLCRKCKFCLSPLTNLCGKISNLKSPASDQQLMEDKTSRFTCKGKPVYHFFGTSTFSQYTVVSDINLAKIDDDANLERVCLLGCGFSTGYGAAINNAKVTPGSTCAVFGLGGVGLSAVMGCKAAGASRIIGIDINSEKFVKAKALGATDCLNPRDLHKPIQEVIIELTKGGVDFALDCAGGSETMKAALDCTTAGWGSCTFIGVAAGSKGLTIFPEELIIGRTINGTFFGGWKSVDSIPKLVTDYKNKKFNLDALVTHTLPFDKISEAFDLMNQGKSVRTILIF | – | 55 | 66 | 51 | at least one month | 100 | a few hours to >3 days | 1.5 | 82.0% and 83.4% and 85.9% and 81.3% |
